Measurements from paper PMC6019379, “RecA-like domain 2 of DNA-dependent ATPase A domain, a SWI2/SNF2 protein, mediates conformational integrity and ATP hydrolysis” (Bioscience Reports, 2018).

Molecular target: T1, ADAAD T560A (Bos taurus (bovine), UniProt Q9TTA5 221-940, T780A)
T1 sequence: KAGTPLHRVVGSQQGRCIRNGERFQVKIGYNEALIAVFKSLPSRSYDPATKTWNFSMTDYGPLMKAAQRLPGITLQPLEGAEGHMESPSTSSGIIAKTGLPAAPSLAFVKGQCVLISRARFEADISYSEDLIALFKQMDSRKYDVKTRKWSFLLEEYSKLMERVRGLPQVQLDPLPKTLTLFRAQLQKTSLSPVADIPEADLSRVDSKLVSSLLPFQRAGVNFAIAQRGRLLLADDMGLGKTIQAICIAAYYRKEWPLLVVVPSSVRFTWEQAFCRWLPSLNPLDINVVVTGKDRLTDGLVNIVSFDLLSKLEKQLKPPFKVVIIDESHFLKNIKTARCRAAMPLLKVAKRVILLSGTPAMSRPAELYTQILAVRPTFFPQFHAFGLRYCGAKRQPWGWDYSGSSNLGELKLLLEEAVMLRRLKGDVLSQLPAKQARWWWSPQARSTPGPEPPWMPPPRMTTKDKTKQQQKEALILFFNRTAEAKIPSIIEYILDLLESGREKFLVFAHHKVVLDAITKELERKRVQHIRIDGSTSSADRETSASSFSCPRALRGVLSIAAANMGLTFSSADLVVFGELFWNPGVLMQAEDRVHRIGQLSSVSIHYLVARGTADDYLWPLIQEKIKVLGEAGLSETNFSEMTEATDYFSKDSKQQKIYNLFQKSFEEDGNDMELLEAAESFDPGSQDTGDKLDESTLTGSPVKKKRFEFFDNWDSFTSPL
Assay: intrinsic tryptophan fluorescence titration; saturating ATP; Fluorescence titration (ex 295 nm, em 340 nm), one-site saturation fit; buffer, salt, pH and temperature not given in the material. Wild-type ADAAD Kd values are cited from ref 24 and not listed
Conditions: protein: recombinant; tags: His (Ni-NTA, pET-14b); hairpin

GCGCAATTGCGCTCGACGATTTTTTAGCGCAATTGCGC (structured_DNA) [slDNA (stem-loop DNA)]
Kd: 1.4 ± 0.3 nM
